Patent US12247062 (1GLOBE BIOMEDICAL, dated 2025)

Target: T1, rituximab (RITUXAN), coated on CD20+ Daudi cells
T1 construct: also called MABTHERA; ZYTUX
Experiment: flow cytometry titrations compared: rituximab-coated Daudi cells against Jurkat cells (CD3)
From the text: Figure 12: FIG. 12 schematically depicts an assay using Daudi cells to test the ability of an Adapter-like ADCC Enhancer of the present invention to bind CD20+ target cells coated with RITUXAN (rituximab). Figure 13: FIG. 13 illustrates FACS data showing, in an assay according to FIG. 12, the binding between Daudi cells and the ADCC Enhancer of the invention before purification ("Sample Load") and after purification ("Purified Protein"). Figure 14: FIG. 14 illustrates FACS data showing titration of binding between Daudi cells and the ADCC Enhancer of the invention at various concentrations. The volume of the Enhancer in microliters are indicated in the upper right corner of the top six diagrams as: 50, 25, 12.5, 6.25, 3.13 and 1.56 microliters. The bottom diagram summarizes the data. CD20+ Daudi cells were coated with RITUXAN (rituximab) (anti-CD20 antibody) and excess RITUXAN (rituximab) was removed by washing the cells with PBS. RITUXAN (rituximab)-coated cells were incubated with various amounts of the Enhancer, and excess Enhancer was removed by washing the cells in PBS. Bound Enhancer proteins were detected using fluorescent anti-human CD64 antibody.
With tagged protein, binding affinity can also be detected using a fluorescently tagged anti-tag antibody. This approach can also be used to detect binding of the CD64 domain by rituximab-coated CD20⁺ Daudi cells (see FIG. 12). […]

B1: CD64-dhOKT3 fusion protein (Adapter-like ADCC Enhancer) (other)
chain: QVDTTKAVITLQPPWVSVFQEETVTLHCEVLHLPGSSSTQWFLNGTATQTSTPSYRITSASVNDSGEYRCQRGLSGRSDPIQLEIHRGWLLLQVSSRVFTEGEPLALRCHAWKDKLVYNVLYYRNGKAFKFFHWNSNLTILKTNISHNGTYHCSGMGKHRYTSAGISVTVKELFPAPVLNASVTSPLLEGNLVTLSCETKLLLQRPGLQLYFSFYMGSKTLRGRNTSSEYQILTARREDSGLYWCEAATEDGNVLKRSPELELQVLSSGGGGSQVQLVQSGGGVVQPGRSLRLSCKSSGYTFTRYTMHWVRQAPGKGLEWIGYINPSRGYTNYNQKVKDRFTISRDNSKNTAFLQMDSLRPEDTGVYFCARYYDDHYCLDYWGQGTPVTVSSVEGGSGGSGGSGGSGGVDDIQMTQSPSSLSASVGDRVTITCRASSSVSYMNWYQQTPGKAPKRWIYDTSKVASGVPSRFSGSGSGTDYTFTISSLQPEDIATYYCQQWSSNPLTFGQGTKLQIT
notes: Expressed in Expi293 cells and used as culture supernatant or after IgG Sepharose purification; Untagged; also called Soluble Universal ADCC Enhancer Protein; SUAEP
For B1, the “fold stronger Fc- or antibody-binding than CD3-binding” value was ~30 fold.
